Substitutions are numbered along the chain they refer to.
What was measured:
Experiment in all cases: ELISA, coated protein
[1] = biological target: T1, BSA(ウシ血清アルブミン) (ウシ, UniProt P02769 25-607)
T1 construct: also called BSA

[2] = biological target: Human-hemoglobin (human, UniProt P69905 2-142; P68871 2-147)
[3] = biological target: T2, HSA(ヒト血清アルブミン) (ヒト, UniProt P02768 25-609)
T2 construct: also called HSA

Measured: binding result

Chain of Human-hemoglobin (P69905 2-142 limits assumed, chain 1 of 2): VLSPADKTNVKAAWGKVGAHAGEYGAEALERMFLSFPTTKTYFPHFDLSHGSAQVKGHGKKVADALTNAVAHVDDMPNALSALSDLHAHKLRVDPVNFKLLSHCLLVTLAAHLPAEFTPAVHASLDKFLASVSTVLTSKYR
Chain of Human-hemoglobin (P68871 2-147 limits assumed, chain 2 of 2): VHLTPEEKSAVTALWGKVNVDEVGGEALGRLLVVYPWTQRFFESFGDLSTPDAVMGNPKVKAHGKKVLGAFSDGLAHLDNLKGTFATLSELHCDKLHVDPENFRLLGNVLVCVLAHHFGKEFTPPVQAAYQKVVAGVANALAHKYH
T2 sequence (P02768 25-609): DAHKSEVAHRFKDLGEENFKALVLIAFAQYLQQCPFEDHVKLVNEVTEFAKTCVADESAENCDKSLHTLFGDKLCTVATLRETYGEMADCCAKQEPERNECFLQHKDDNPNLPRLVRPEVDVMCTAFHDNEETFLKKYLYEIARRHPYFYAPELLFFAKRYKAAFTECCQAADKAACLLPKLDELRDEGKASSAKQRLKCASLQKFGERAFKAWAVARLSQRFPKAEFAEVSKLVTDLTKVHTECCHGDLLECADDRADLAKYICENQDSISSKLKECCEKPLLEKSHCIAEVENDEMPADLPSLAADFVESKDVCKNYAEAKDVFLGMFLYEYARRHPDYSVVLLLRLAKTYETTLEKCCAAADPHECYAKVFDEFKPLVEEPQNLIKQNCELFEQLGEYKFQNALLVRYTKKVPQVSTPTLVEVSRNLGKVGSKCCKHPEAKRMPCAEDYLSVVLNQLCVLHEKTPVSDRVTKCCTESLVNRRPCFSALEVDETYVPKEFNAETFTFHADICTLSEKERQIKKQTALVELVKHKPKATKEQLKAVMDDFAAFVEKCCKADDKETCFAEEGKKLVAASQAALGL
T1 sequence (P02769 25-607 limits assumed): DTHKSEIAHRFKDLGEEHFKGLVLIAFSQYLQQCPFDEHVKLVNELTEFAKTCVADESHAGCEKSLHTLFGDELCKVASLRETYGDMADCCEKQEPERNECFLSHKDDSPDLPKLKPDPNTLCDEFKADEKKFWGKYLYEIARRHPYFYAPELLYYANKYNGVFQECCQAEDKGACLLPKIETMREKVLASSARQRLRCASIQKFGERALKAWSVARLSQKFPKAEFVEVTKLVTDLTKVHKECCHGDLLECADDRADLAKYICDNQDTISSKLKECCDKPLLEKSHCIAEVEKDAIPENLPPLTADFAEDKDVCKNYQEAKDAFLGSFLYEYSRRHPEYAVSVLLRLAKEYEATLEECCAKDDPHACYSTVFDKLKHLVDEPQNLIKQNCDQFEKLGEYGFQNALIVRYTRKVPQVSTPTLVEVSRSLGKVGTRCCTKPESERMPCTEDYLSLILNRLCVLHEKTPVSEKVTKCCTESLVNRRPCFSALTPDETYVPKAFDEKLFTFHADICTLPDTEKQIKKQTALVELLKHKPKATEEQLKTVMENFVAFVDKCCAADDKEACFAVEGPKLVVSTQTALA

B1: モノクロナール抗体(抗体酵素)HA1−1 (antibody, V domains shown)
VH: QVQLQQSGPQLVRPGASVKISCKTSGYSFTTYWMHWVKQRPGQGLDWIGMIDPSESETRLNQKFKDKATLTVDKSSSTADMQLSSPTSEDSAVYYCASYEGYWGQGTLVTVS
VL: DIVMSQSPSSLAVSAGEKVTMSCKSSQSLLNSRTRKNYLAWYQQKPGQSPKLLIYWASARESGVPDRFTGSGSGTDFTLTISSVQAEDLAVYYCKQSYTLTWTFGGGTKVEIKR
notes: also called HA1-1; HA1−1抗体
no binding: [1] | [2] | [3]

B2: モノクロナール抗体(抗体酵素)HA1−2 (antibody, V domains shown)
VH: QVQLQQSGPHLVRPGTSVRISCKASGYSFTSYWMHWVKQRPGQGLEWIGMIAPSDSETGLNQKFKDKATLTVDKSSSTAYIQLSSPTSEDSAVYYCASYEAYWGQGTLVTVS
VL: B1 VL with A15V, T34A, A59T, T99N, L100V, V110L
notes: also called HA1-2; HA1−2抗体
no binding: [1] | [2] | [3]
